The target in one assay is T1, INCENP FL (Homo sapiens, UniProt Q9NQS7).
T1 construct: full length, denatured on SDS-PAGE and blotted; also called full-length INCENP in HeLa cell lysate
Description: western blot, HeLa cell lysate on SDS-PAGE / PVDF, INC-N-16 Fab as primary, anti-human F(ab')2 IgG-HRP secondary. The protocol: (§1) Membranes were stained with Ponceau S dye to verify correct transfer of the proteins, were briefly washed with ddH2O and blocked with 4% skimmed milk in TBS-T containing 0.05% Tween20 for 30 min. at RT on the shaker. […] Membranes were washed 3 times with TBS-T and incubated with secondary anti-human FAB′2 specific HRP-conjugated IgG (diluted 1:10,000 in blocking buffer) for 45 minutes at RT, shaking. Membranes were washed again 3× with TBS-T, developed with ECL chemiluminescent substrate and visualized with the Biorad imaging instrument (FIG. 11).
A general note: A western blot detects proteins with antibodies after separation by electrophoresis.

In assay [1] the target is T2, INCENP N-terminal domain (1-58), His- and Avi-tagged, biotinylated (UniProt Q9NQS7 1-58, biotinylated (Avi-tag, co-expressed E. coli biotin ligase BirA)).
T2 construct: range 1-58; Expressed in E. coli BL21(DE3); also called INC-N; INCENP N-terminal domain (AA 1-58); not shown: His-tag and Avi-tag
T2 sequence (looked up): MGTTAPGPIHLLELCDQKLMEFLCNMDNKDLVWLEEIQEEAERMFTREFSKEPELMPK
Description: western blot, recombinant INC-N on SDS-PAGE / PVDF, INC-N-16 Fab as primary, anti-human F(ab')2 IgG-HRP secondary. As for the experimental part:
as §1

B1: INC-N-16 Fab (Fab, V domains shown)
VH: EVQLVESGGGLVQPGGSLRLSCAASGFNFYSSSIHWVRQAPGKGLEWVASIYPYSGYTSYADSVKGRFTISADTSKNTAYLQMNSLRAEDTAVYYCARAWIYAMDYWGQGTLVTVSS
VL: DIQMTQSPSSLSASVGDRVTITCRASQSVSSAVAWYQQKPGKAPKLLIYSASSLYSGVPSRFSGSRSGTDFTLTISSLQPEDFATYYCQQWDQWLITFGQGTKVEIKR
On to B1, for which the binding result (in the assay with INCENP FL; in assay [1]) was “binds” each time.

Source of the values: patent US20240408138A1 (UNIVERSITY OF CHICAGO, published 2024).
